Source: patent publication US20250099635A1, “IIMMUNOCONJUGATES COMPRISING KALLIKREIN RELATED PEPTIDASE 2 ANTIGEN BINDING DOMAINS AND THEIR USES” (Janssen Biotech, Inc., priority 2022, published 2025)

B1: KL2B53 (Fab) (antibody, V domains shown)
VH: EVQLVESGGGVVQPGRSLRLSCVASGFTFSSYDIHWVRQAPGKGLEWVAIISYDGSKKDYTDSVKGRFTISRDNSKNTLYLQMDSLRVEDSAVYSCARESGWSHYYYYGMDVWGQGTMVTVSS
VL: DIVMTQSPSSLSASVGDRVTITCRASQDISNYLAWYQQKPGKVPKFLIYAASTLHSGVPSRFSGSGSGTDFTLTISSLQPEDVATYYCQKYNSAPYTFGQGTRLEIK
B2: KL2B242 (Fab) (antibody, V domains shown)
VH: QVQLQESGPGLVKPSETLSLTCTVSGGSISSYYWSWLRQPAGSGLEWIGRLYVSGFTNYNPSLKSRVTLSLDPSRNQLSLKLSSVTAADTAVYYCAGDSGNYWGWFDPWGQGTLVTVSS
VL: SYELTQPPSVSVSPGETASITCSGDQLGENYACWYQQKPGQSPVLVIYQDSKRPSGIPERFSGSNSGNTATLTISGTQALDEADYYCQAWDNSIVVFGGGTKLTVL
B3: KL2B467 (Fab) (antibody, V domains shown)
VH: QVQLVESGGGVVQPGRSLRLSCAASGFTFSYYGMHWVRQAPGKGLEWVAFISYDGSNKYYADSVKGRFTISRDNSKNTLYLQMNSLRAEDTAVYYCAHLPYSGSYWAFDYWGQGTQVTVSS
VL: QSVLTQPPSVSVAPGQTASITCGGDNIGSKSVHWYQQKPGQAPVLVVYDNSDRPSGIPERFSGSNSGTTATLTISRVEAGDEADYYCQVWDSSSDHPVVFGGGTKVTV

Assay: Thermal stability (Tm) by Differential Scanning Fluorimetry (NanoDSF)
Type: physicochemical
Conditions: 0.5 mg/mL in Phosphate Buffered Saline, pH 7.4
Procedure: Thermal stability was determined by Differential Scanning Fluorimetry (NanoDSF) using an automated Prometheus instrument. NanoDSF was used to measure Tm of molecules at a concentration of 0.5 mg/mL in Phosphate Buffered Saline, pH 7.4. Measurements were made by loading samples into 24 well capillary from a 384 well sample plate. Duplicate runs were performed for each sample. The thermal scans span from 20° C. to 95° C. at a rate of 1.0° C./minute. Intrinsic tryptophan and tyrosine fluorescence were monitored at the emission wavelengths of 330 nm and 350 nm, and the F350/F330 nm ratio were plotted against temperature to generate unfolding curves.

Molecule | Tm (° C.) [°C]
B1 | >70
B2 | >70
B3 | >70
